For one assay, the target named is FGFR3 (Homo sapiens, UniProt P22607). The assay can be described thus: Flow cytometry staining of primary myeloma cells expressing FGFR3. It counts as binding. Further details: endogenous in cells; host or cells: primary myeloma cells from bone marrow of t(4;14)-positive MM patients. The settings on record: versus isotype control. Here is the method:
FIGS. 6 A-B are flow cytometry charts of human primary myeloma cells treated with anti-FGFR antibody PRO-001. A: Freshly isolated BMSCs were stained with PRO-001 (black line) or control antibody (grey line) and then stained with PE-conjugated anti-human secondary antibody. B: Primary myeloma cells were incubated in the absence (filled) or presence of FGF (light line) or pre-incubated with 5 μg/ml PRO-001 (dark line) for 2 h and then stimulated with FGF. ERK1/2 phosphorylation was assessed by flow cytometry analysis.
(§1) Cells (5×10^5) were washed in cold phosphate-buffered saline (PBS) and then incubated for 30 minutes with one of the following: PRO-001 Fab or a human Fab control antibody, rabbit anti-FGFR3 (100) or rabbit preimmune serum in PBS. The cells were then stained with PE-conjugated goat antihuman F(ab′)2 secondary antibody or goat anti-rabbit IgG-PE for 30 minutes on ice. Flow cytometry was performed on a FACSCaliber flow cytometer (BD Biosciences, San Jose, Calif.) and analyzed using Cellquest software (Becton Dickinson). To assess the ability of FGF ligand to compete for binding, cells were incubated in the presence or absence of 30 ng/ml FGF and 5 μg/ml heparin for 30 minutes and then stained with PRO-001 Fab as describe above.
The next experiments were designed to examine the effect of PRO-001 on primary human MM cells. […]
(A flow cytometer gives signals particle by particle.)

The target in a further assay is T1, WT FGFR3 (Homo sapiens, UniProt P22607).
T1 construct: expressed in transfected cells; host or cells: B9 cells
In words: Flow cytometry binding of PRO-001 Fab to B9-FGFR3^WT cells, with or without FGF.
From the text: FIG. 1A is a flow cytometry chart showing B9-FGFR WT (wild type) cells fluorescently labeled with PRO 001 followed by a PE-conjugated anti-human secondary antibody. The filled histogram indicates parental B9 cells (lacking FGFR3 expression); the dotted light line, B9-FGFR WT without aFGF; the solid dark line, B9-WT in the presence of aFGF. The Y axis represents counts indicating the amount of cells. The X axis represents fluorescence intensity.
as §1
The human anti-FGFR3 Fab PRO-001 was isolated from the Hu-CAL®-Fab-1 human combinatorial library using a differential whole cell panning approach (Rauchenberger R, et al. J Biol. Chem. 2003; 278:38194-205). […]

A further assay concerns the target T2, FGFR3-F384L (Homo sapiens, UniProt P22607, F384L).
T2 construct: expressed in transfected cells; host or cells: B9 cells
In words: FGF-stimulated growth of B9 cells expressing FGFR3 mutant F384L. Type of assay: cell-based. On the procedure:
Non-transformed rat chondrocyte cell line expressing PGFR3 in an inducible manner (RCJ-FGFR3) has been described previously (Rauchenberger R. et al. J. Biol. Chem. 2003; 278:38194-205). Cells were maintained in α-Minimum Essential Media supplemented with 15% fetal calf serum (FCS), 2 mM L-Glutamine, 100 U/ml penicillin, 100 μg/ml streptomycin, 600 μg/ml G418 (Gibco BRL, Ontario, Canada), 2 μg/ml Tetracyclin (Sigma, Ontario, Canada), and 50 μg/ml HygromycinB (Gibco BRL). FGFR3 expression was induced by removal of tetracyclin and serum starvation. […]
Cell viability was assessed by 3-(4,5-dimethylthiazol)-2,5-diphenyl tetrazolium (MTT) or (2,3-bis(2-methoxy-4-nitro-5-sulphophenyl)-5-[(phenylamino) carbonyl]-2H-tetrazolium hydroxide (XTT) dye absorbance where indicated. Cells were seeded in 96-well plates at a density of 20,000 (FDCP-1 cells), 5,000 (B9 cells) or 25,000 cells (MM cell lines) per well in culture medium. Cells were incubated in the absence or presence of one of the following cytokines: 10 ng/ml FGF9 and 5 μg/ml heparin, 1% murine IL-6, 50 ng/ml IGF-1 or 50 ng/ml human IL-6 where indicated and increasing concentrations of PRO-001, control antibody (purified human Fab) or 100 nM PD173074. […]

T1 sequence (P22607 23-806): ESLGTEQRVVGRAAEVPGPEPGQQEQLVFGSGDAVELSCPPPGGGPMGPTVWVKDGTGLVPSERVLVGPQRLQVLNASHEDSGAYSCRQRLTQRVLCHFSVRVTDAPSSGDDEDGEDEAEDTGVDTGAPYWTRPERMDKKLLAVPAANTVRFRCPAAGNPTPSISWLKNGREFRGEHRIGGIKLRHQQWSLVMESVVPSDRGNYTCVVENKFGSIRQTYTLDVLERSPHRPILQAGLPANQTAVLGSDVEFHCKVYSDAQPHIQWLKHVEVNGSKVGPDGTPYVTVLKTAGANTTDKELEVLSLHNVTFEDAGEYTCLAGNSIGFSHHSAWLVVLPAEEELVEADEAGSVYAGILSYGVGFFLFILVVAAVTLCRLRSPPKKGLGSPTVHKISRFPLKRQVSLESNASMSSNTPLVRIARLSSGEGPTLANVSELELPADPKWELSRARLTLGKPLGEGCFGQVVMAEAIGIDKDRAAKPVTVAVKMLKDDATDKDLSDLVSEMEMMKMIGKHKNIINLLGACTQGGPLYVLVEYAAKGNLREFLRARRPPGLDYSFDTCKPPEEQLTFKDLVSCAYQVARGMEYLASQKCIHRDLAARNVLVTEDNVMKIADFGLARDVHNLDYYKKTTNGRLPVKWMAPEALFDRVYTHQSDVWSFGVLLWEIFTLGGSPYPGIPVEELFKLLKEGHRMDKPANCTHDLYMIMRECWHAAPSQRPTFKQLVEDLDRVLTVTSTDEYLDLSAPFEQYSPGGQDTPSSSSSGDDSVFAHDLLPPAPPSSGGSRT
T2 sequence (P22607 23-806 F384L): as the sequence (P22607 23-806) above, with F362L counted along it
Chain of FGFR3 (P22607 23-806): as the sequence (P22607 23-806) above

B1: PRO-001: human anti-FGFR3 Fab from HuCAL library; VH-CDR3 SEQ ID NO:1, VL-CDR3 SEQ ID NO:10; VH SEQ ID NO:19, VL SEQ ID NO:28 (antibody, V domains shown)
VH: QVQLQQSGPGLVKPSQTLSLTCAISGDSVSSNSAAWNWIRQSPGRGLEWLGRTYYRSKWYNDYAVSVKSRITINPDTSKNQFSLQLNSVTPEDTAVYYCARSYYPDFDYWGQGTLVTVSS
VL: DIELTQPPSVSVAPGQTARISCSGDALGDKYASWYQQKPGQAPVLVIYDDSDRPSGIPERFSGSNSGNTATLTISGTQAEDEADYYCQSYDGPDLWVFGGGTKLTVLGQ
For the molecule B1, in the assay with FGFR3, the “Staining of primary cells expressing FGFR3” value was “identified”. The “Binding to B9-FGFR3^WT cells on addition of FGF” value in the assay with WT FGFR3 (30 ng/ml FGF and 5 μg/ml heparin) is “can be reduced by addition of FGF”. In addition, the “Binding to WT FGFR3 (FACS)” value with WT FGFR3 (PRO-001 Fab, B9-FGFR3^WT cells) was “binds to WT FGFR3”. Further, the “IC50, FGF-stimulated growth of B9 cells expressing FGFR3 mutant F384L” value with FGFR3-F384L is listed as “approximately 3 μg/ml”.

The values are drawn from patent US20090175866A1, “TREATMENT OF B-CELL MALIGNANCIES” (priority 2004, published 2009).
